Reference: patent US20210253662A1, “Long-Acting Recombinant GLP1-Fc-CD47 Protein and Preparation and Use Thereof” (ZHEJIANG PALO ALTO PHARMACEUTICALS, INC, priority 2018, published 2021)

Columns and labels:
[1] = Stability in rat serum in vitro, read as remaining activity in activating hGLP-1R; type: in vitro ADME; conditions: 37° C., activity at 0.03 nM, day 0 as 100%
Description: The decay rate of protein activity indirectly reflects the stability of the protein in the serum.

[2] = test system: Male C57BL/KsJ mice; experiment: Intraperitoneal glucose tolerance test (IPGTT) after a single s.c. dose; type: in vivo; conditions: s.c. 30 nmol/kg
Method: Male C57BL/KsJ mice of 6 weeks old are randomized into a vehicle control group, a positive drug group and a test protein group according to body weights and blood glucose levels, and are subcutaneously (s.c.) injected with corresponding drugs. An intraperitoneal glucose tolerance test (IPGTT) is performed after dosing for a period of time following the steps as follows: fast the mice for 6 h, collect blood samples from tail veins of the mice in each group before the test, measure the blood glucose levels with a Roche ACCU-CHEK blood glucose meter and record the results at a −60 min time point; measure blood glucose levels again at 0 min in each group before intraperitoneally injecting 2 g/kg glucose (body weight), afterwards measure and record blood glucose levels of mice in each group at 15 min, 30 min, 60 min and 120 min. An IPGTT curve is plotted based on the blood glucose levels to calculate the areas under curve (AUC0-120 min (mM*min)), and the differences are statistically analyzed using the t-test.

[3] = background statement; cited from earlier work
[4] = target: human GLP-1 receptor (human, UniProt P43220 24-463); experiment: cell-based or functional assay

| Molecule | Activity of Activated hGLP-1R (relative value from EC50, CRE-NanoLuc luciferase reporter in AD293 cells; 100% for GLP1 (7-37)) [4] | further results |
| --- | --- | --- |
| L1: L1 protein (dulaglutide, SEQ ID NO.: 11), GLP-1-Fc fusion protein, positive control, dimer [reference compound] | – | Decrease in activity after 7 days of incubation in serum [1]: 33.3%; Decrease of area under curve (AUC) in blood glucose vs solvent control group ([2]; seven days after a single dose, IPGTT AUC0-120 min): 14.8%; Hypoglycemic activity (AUC) ten days post-dose ([2]; ten days after a single dose, IPGTT): no significant decrease; half-life in vivo [3]: 108 to 113 h |
| HGEGTFTSDVSSYLEEQAAKEFIAWLVKGGG [Gly8-Glu22-Gly36-GLP1(7-37)] | 121% | – |
| HGEGTFTSDVSSYLEEQAAKEFIAWLVRGGG [Gly8-Glu22-Arg34-Gly36-GLP1(7-37)] | 163% | – |
| HGEGTFTSDVSSYLEEQAAKEFIAWLVRGVG [Gly8-Glu22-Arg34-Val36-GLP1(7-37)] | 142% | – |
| HGEGTFTSDVSSYLEEQAAKEFIAWLVRGAG [Gly8-Glu22-Arg34-Ala36-GLP1(7-37)] | 168% | – |
| HGEGTFTSDVSSYLEEQAAKEFIAWLVRGLG [Gly8-Glu22-Arg34-Leu36-GLP1(7-37)] | 113% | – |
